Measurements published in patent publication US20080038235A1.

T1: NF-ATp expressed from an NF-ATp expression plasmid (pREP4-NF-ATp)
T1 sequence (Q60591 1-927, species assumed, looked up): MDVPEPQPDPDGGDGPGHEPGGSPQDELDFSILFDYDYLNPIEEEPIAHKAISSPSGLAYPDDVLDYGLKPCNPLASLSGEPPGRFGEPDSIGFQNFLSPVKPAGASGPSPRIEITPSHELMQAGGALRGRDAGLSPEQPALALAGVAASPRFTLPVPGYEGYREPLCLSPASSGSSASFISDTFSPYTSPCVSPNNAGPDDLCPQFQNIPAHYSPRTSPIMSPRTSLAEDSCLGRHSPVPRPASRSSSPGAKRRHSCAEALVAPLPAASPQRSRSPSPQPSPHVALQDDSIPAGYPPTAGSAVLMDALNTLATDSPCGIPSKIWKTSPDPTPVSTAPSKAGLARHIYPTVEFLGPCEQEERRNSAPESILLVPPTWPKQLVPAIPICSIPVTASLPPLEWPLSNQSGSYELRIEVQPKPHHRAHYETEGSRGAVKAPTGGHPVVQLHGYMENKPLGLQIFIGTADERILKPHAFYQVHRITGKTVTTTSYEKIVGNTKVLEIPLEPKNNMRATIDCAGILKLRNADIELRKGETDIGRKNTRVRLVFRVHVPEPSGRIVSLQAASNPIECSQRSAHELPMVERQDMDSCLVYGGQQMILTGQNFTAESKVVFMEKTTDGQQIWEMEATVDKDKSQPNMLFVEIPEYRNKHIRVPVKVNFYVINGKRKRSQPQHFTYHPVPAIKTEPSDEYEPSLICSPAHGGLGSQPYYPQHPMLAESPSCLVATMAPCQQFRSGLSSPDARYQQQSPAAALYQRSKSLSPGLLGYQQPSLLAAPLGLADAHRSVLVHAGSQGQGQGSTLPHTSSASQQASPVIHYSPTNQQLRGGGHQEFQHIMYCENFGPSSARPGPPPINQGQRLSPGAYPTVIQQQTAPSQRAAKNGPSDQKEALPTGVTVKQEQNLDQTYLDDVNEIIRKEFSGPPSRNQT

T2: NF-AT3 expressed from an expression construct
T2 sequence (Q14934 1-902, species assumed, looked up): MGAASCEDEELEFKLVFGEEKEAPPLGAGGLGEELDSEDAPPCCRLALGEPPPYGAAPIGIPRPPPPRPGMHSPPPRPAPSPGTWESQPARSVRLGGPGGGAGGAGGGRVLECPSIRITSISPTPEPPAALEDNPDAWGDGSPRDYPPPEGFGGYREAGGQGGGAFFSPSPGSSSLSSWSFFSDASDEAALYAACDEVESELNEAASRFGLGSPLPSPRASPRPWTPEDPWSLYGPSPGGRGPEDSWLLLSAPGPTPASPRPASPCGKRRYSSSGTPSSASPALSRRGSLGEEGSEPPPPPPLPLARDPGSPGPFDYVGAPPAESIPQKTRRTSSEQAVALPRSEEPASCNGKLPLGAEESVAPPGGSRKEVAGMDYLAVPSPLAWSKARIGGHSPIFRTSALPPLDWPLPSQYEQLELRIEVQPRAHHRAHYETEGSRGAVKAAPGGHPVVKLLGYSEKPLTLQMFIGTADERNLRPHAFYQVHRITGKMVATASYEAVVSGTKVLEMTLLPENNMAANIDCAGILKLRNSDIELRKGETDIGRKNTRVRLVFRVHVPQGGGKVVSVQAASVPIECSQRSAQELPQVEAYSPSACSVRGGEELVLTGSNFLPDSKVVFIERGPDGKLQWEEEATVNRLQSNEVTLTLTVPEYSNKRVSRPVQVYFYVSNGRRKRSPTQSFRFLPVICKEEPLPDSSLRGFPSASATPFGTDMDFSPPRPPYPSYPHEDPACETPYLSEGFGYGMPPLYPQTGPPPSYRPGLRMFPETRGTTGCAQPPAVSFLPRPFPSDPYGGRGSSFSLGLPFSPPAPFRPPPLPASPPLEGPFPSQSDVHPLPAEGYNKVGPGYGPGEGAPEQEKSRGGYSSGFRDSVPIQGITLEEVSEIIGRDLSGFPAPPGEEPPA

T3: NF-ATc expressed from an expression construct
T3 sequence (O95644 1-943, species assumed, looked up): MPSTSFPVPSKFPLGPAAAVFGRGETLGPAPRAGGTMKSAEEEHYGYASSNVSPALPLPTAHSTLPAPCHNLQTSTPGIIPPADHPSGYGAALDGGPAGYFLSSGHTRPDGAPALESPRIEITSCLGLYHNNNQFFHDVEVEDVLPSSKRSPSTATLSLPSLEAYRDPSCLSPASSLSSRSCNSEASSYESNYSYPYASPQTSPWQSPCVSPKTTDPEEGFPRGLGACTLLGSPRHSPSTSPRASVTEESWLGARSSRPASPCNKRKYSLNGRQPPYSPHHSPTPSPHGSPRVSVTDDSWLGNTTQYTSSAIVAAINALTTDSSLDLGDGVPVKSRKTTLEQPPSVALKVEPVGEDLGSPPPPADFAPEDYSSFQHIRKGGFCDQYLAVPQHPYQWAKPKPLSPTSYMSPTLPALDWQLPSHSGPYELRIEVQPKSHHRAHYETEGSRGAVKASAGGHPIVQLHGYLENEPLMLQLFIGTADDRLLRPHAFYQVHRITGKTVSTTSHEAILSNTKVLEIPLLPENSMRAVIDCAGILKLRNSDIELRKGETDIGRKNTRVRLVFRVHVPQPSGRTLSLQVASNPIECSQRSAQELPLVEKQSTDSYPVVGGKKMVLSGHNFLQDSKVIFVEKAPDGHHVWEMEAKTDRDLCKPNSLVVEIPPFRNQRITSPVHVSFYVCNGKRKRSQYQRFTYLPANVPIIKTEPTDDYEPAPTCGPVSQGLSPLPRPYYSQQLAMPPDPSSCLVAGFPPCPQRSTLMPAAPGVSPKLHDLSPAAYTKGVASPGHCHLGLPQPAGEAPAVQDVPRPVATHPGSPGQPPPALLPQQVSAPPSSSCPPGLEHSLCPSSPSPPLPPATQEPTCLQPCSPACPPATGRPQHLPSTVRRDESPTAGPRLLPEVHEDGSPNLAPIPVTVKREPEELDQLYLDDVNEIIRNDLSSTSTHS

T4: NF-AT4 expressed from an expression construct
T4 sequence (Q12968 2-1075, species assumed, looked up): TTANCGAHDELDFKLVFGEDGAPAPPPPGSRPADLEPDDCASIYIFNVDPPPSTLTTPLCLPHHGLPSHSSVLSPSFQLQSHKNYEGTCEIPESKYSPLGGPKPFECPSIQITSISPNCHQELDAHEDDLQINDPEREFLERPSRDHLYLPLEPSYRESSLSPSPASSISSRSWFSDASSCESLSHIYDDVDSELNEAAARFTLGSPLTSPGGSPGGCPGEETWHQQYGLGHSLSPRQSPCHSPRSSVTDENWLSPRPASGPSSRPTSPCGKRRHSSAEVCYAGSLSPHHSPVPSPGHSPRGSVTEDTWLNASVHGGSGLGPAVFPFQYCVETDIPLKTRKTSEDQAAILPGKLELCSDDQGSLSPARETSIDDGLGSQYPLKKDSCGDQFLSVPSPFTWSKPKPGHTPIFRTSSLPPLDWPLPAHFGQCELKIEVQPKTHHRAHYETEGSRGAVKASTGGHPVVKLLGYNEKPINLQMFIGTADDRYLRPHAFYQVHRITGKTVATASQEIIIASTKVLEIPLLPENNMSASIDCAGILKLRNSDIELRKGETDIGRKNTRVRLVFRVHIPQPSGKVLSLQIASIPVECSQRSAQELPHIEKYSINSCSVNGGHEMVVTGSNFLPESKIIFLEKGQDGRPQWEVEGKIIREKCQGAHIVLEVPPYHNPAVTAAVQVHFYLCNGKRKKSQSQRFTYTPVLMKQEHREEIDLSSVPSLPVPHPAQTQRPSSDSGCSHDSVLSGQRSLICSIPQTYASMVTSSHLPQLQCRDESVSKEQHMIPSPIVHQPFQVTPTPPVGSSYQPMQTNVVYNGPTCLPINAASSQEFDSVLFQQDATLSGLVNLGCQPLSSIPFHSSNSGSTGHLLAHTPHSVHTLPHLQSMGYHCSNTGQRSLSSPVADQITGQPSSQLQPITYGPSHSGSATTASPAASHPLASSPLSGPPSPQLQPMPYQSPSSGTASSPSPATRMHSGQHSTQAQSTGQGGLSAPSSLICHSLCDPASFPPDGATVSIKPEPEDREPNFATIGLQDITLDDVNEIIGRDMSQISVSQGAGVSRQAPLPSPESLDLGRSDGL


Experiments:
Test in all cases: cell-based or functional assay
[1] = target: T1, NF-ATp expressed from an NF-ATp expression plasmid (pREP4-NF-ATp)
[2] = target: T2, NF-AT3 expressed from an expression construct
[3] = target: T3, NF-ATc expressed from an expression construct
[4] = target: T1, NF-ATp expressed from an NF-ATp expression plasmid (pREP4-NF-ATp); remark: listed apart in the source
[5] = target: T4, NF-AT4 expressed from an expression construct

Sequence of c-Maf expressed from the c-Maf expression vector pMEX-Maf (full-length 4.3 kb c-maf cDNA clone) (P54843 whole entry): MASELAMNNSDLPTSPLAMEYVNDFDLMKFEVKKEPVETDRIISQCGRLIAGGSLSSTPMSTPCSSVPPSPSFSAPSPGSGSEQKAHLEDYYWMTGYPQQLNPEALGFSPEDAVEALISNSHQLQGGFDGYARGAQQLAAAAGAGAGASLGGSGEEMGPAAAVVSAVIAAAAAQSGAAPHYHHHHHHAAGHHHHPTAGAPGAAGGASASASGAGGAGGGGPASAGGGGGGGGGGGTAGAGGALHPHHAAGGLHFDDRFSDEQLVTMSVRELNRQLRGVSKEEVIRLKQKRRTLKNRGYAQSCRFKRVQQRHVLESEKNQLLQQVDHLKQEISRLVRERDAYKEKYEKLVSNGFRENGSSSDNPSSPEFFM

Row | CAT Activity (fold induction), IL-4 CAT reporter in M12 cells, no PMA/iono., Exp. I (fold induction) [1] | CAT Activity (fold induction), IL-4 CAT reporter in M12 cells, no PMA/iono., Exp. II (fold induction) [1] | CAT Activity (fold induction), IL-4 CAT reporter in M12 cells, no PMA/iono., Exp. III (fold induction) [1] | CAT Activity (fold induction), IL-4 CAT reporter in M12 cells, with PMA/iono., Exp. I (fold induction) [1] | CAT Activity (fold induction), IL-4 CAT reporter in M12 cells, with PMA/iono., Exp. II (fold induction) [1] | CAT Activity (fold induction), IL-4 CAT reporter in M12 cells, with PMA/iono., Exp. III (fold induction) [1] | transactivation of the 3X NF-AT-CAT reporter in HepG2 cells [2] [fold] | transactivation of the 3X NF-AT-CAT reporter in HepG2 cells [3] [fold] | CAT activity, 3X NF-AT-CAT reporter in HepG2 cells, relative to NF-ATp alone [4] [fold] | CAT activity, 3X NF-AT-CAT reporter in HepG2 cells, relative to vector alone [4] [fold] | transactivation of the 3X NF-AT-CAT reporter in HepG2 cells [5] [fold] | Molecule
1 | 136 | 54 | 26.3 | 138 | 100 | 54.7 |  |  |  |  |  | c-Maf expressed from the c-Maf expression vector pMEX-Maf (full-length 4.3 kb c-maf cDNA clone) (from UniProt P54843 1-370)
2 |  |  |  |  |  |  | 3 | 4 | 4 to 5 | 25 to 30 | 2 | NIP45 expressed from a NIP45 expression plasmid (protein) MAEPLRGRGPRSRGGRGARRARGARGRCPRARQSPARLIPDTVLVDLVSDSDEEVLEVADPVEVPVARLPAPAKPEQDSDSDSEGAAEGPAGAPRTLVRRRRRRLLDPGEAPVVPVYSGKVQSSLNLIPDNSSLLKLCPSEPEDEADLTNSGSSPSEDDALPSGSPWRKKLRKKCEKEEKKMEEFPDQDISPLPQPSSRNKSRKHTEALQKLREVNKRLQDLRSCLSPKQHQSPALQSTDDEVVLVEGPVLPQSSRLFTLKIRCRADLVRLPVRMSEPLQNVVDHMANHLGVSPNRILLLFGESELSPTATPSTLKLGVADIIDCVVLASSSEATETSQELRLRVQGKEKHQMLEISLSPDSPLKVLMSHYEEAMGLSGHKLSFFFDGTKLSGKELPADLGLESGDLIEVWG
